# How the values were obtained:
# [1] = target: HLA-A*30:01; assay: IEDB peptide-MHC binding, purified MHC/competitive/radioactivity; filed as Kd, often an IC50 or EC50 that approximates it; ≥ and ≤ were set here for values at or beyond the usual limits of such assays
# [2] = target: HLA-A*03:01; assay: as above; settings: source organism: Dengue virus 1 Brazil/97-11/1997
# [3] = target: HLA-B*40:01; assay: as above
# [4] = target: HLA-B*40:01; assay: IEDB peptide-MHC binding, purified MHC/direct/fluorescence; filed as Kd, often an IC50 or EC50 that approximates it; ≥ and ≤ were set here for values at or beyond the usual limits of such assays; settings: source organism: Mycobacterium tuberculosis
# [5] = target: HLA-A*01:01; assay: IEDB peptide-MHC binding, purified MHC/competitive/radioactivity; filed as Kd, often an IC50 or EC50 that approximates it; ≥ and ≤ were set here for values at or beyond the usual limits of such assays
# [6] = target: HLA-B*53:01; assay: as above
# [7] = target: HLA-A*23:01; assay: as above
# [8] = target: HLA-A*24:02; assay: as above
# [9] = target: HLA-A*26:01; assay: as above
# [10] = target: HLA-A*30:02; assay: as above
# [11] = target: HLA-A*29:02; assay: as above; settings: source organism: Mammarenavirus guanaritoense
# [12] = target: HLA-B*44:03; assay: as above
# [13] = target: HLA-A*02:01; assay: IEDB peptide-MHC binding, purified MHC/competitive/fluorescence; filed as Kd, often an IC50 or EC50 that approximates it; ≥ and ≤ were set here for values at or beyond the usual limits of such assays
# [14] = target: HLA-B*44:02; assay: IEDB peptide-MHC binding, purified MHC/competitive/radioactivity; filed as Kd, often an IC50 or EC50 that approximates it; ≥ and ≤ were set here for values at or beyond the usual limits of such assays
# [15] = target: HLA-A*11:01; assay: IEDB peptide-MHC binding, purified MHC/direct/fluorescence; filed as Kd, often an IC50 or EC50 that approximates it; ≥ and ≤ were set here for values at or beyond the usual limits of such assays; settings: source organism: Yellow fever virus
# [16] = target: HLA-A*03:01; assay: as above; settings: source organism: Shigella sonnei Ss046
# [17] = target: HLA-A*31:01; assay: as above; settings: source organism: Shigella sonnei Ss046
# [18] = target: HLA-A*11:01; assay: IEDB peptide-MHC binding, purified MHC/competitive/radioactivity; filed as Kd, often an IC50 or EC50 that approximates it; ≥ and ≤ were set here for values at or beyond the usual limits of such assays; settings: source organism: Dengue virus 1 Brazil/97-11/1997
# [19] = target: HLA-A*69:01; assay: IEDB peptide-MHC binding, purified MHC/direct/fluorescence; filed as Kd, often an IC50 or EC50 that approximates it; ≥ and ≤ were set here for values at or beyond the usual limits of such assays; settings: source organism: West Nile virus
# [20] = target: HLA-A*26:01; assay: as above; settings: source organism: Mycobacterium tuberculosis
# [21] = source organism: Vaccinia virus WR
# [22] = source organism: Dengue virus 1 Brazil/97-11/1997
# [23] = source organism: Dengue virus 1 Singapore/S275/1990
# [24] = source organism: Dengue virus 4 Philippines/H241/1956
# [25] = source organism: Dengue virus 2 Jamaica/1409/1983
# [26] = source organism: Dengue virus 3 Martinique/1243/1999
# [27] = source organism: Mammarenavirus juninense
# [28] = source organism: Mammarenavirus guanaritoense
sequence,measurement,setting,value
KQKMGPIYA,Kd,[1]; [21],21.7 nM
KQSQSYLTK,Kd,[1]; [21],158 nM
KSLYSHQLV,Kd,[1]; [21],12.3 nM
KVMFVIRFK,Kd,[1]; [21],0.597 nM
KVSPPSLGK,Kd,[1]; [21],1.12 nM
LARWSSFKK,Kd,[2],171 nM
same,Kd,[1]; [22],6.79 nM
LETPNLAERV,Kd,[3]; [23],1010 nM
LEYDGFADF,Kd,[4],42.4 nM
LFVVTLIPLC,Kd,[1]; [24],414 nM
LIDGISLGL,Kd,[5]; source organism: Dengue virus 4 Dominica/814669/1981,10400 nM
LIGLTSRATW,Kd,[6]; [25],459 nM
LPEEQDQNY,Kd,[6]; [26],1520 nM
LTDGEERVIL,Kd,[5]; [25],≥ 23600 nM
LTLTAAVLML,Kd,[5]; [22],6160 nM
LWEGSPGKF,Kd,[7]; [22],7640 nM
same,Kd,[8]; [22],6160 nM
LWYAQIQPHW,Kd,[7]; [25],203 nM
same,Kd,[8]; [25],13.1 nM
LYIKDIFTR,Kd,[5]; [27],≥ 78100 nM
same,Kd,[9]; [27],≥ 77900 nM
same,Kd,[10]; [27],≥ 76900 nM
MIDKTPVHSW,Kd,[6]; source organism: Dengue virus 4 Thailand/0348/1991,725 nM
MSPALFHAFF,Kd,[7]; [28],148 nM
same,Kd,[8]; [28],122 nM
same,Kd,[11],513 nM
MTSLSAVSV,Kd,[1]; [21],887 nM
NEMGLIEKT,Kd,[12]; [24],2000 nM
NLWNGIVPT,Kd,[13]; source organism: Vaccinia virus Copenhagen,0.2 nM
PATLFVWYF,Kd,[6]; [22],1890 nM
PVNDLKYSW,Kd,[6]; [24],782 nM
PYLGKREDLW,Kd,[7]; [24],505 nM
same,Kd,[8]; [24],1620 nM
QEKGKSLLF,Kd,[14]; [25],52.7 nM
same,Kd,[12]; [25],1140 nM
QENPYRTWAY,Kd,[3]; [24],1600 nM
same,Kd,[14]; [24],7.66 nM
same,Kd,[12]; [24],8.86 nM
QKATLTEGVY,Kd,[10]; [24],15.6 nM
QPSKGWHDW,Kd,[6]; [26],207 nM
RFLTIPPTA,Kd,[1]; [25],60.5 nM
RIRQGKFIK,Kd,[1]; [21],4.79 nM
RMGERQLQK,Kd,[15],29.5 nM
RPVLFRYTR,Kd,[16],≥ 20000 nM
same,Kd,[17],416 nM
RTHTALIFL,Kd,[1]; [21],0.704 nM
RTRDLFIAL,Kd,[1]; [21],0.108 nM
RYNLDPDTI,Kd,[7]; [28],6790 nM
same,Kd,[8]; [28],2970 nM
same,Kd,[11],≥ 40600 nM
RYRCSFAVA,Kd,[1]; [21],0.00377 nM
SILLSSLLK,Kd,[2],8.01 nM
same,Kd,[18],19.3 nM
same,Kd,[1]; [22],2140 nM
SLARGFPFV,Kd,[19],≤ 1 nM
same,Kd,[13]; source organism: West Nile virus,1.23 nM
STTEAILPEY,Kd,[5]; [26],232 nM
same,Kd,[9]; [26],48 nM
same,Kd,[10]; [26],≥ 61200 nM
SYLAGAGLAF,Kd,[7]; [22],4.35 nM
same,Kd,[8]; [22],71.5 nM
SYSMCTGKF,Kd,[7]; [25],142 nM
same,Kd,[8]; [25],108 nM
SYTQVCDHRL,Kd,[8]; source organism: Dengue virus 1 Nauru/West Pac/1974,930 nM
TEKDSPVNI,Kd,[14]; [25],587 nM
TVVPLMAFL,Kd,[13]; source organism: Bacillus cereus G9241,48.5 nM
TWALCEALTL,Kd,[7]; [25],511 nM
same,Kd,[8]; [25],114 nM
VEIWTKEGEK,Kd,[3]; [26],754 nM
VEPWLKNNQF,Kd,[3]; [26],1620 nM
same,Kd,[14]; [26],93.7 nM
same,Kd,[12]; [26],162 nM
VTDFKGKTV,Kd,[5]; [25],≥ 20300 nM
VTTLGLPFY,Kd,[20],13000 nM
VYPLSIPATL,Kd,[7]; [23],15.3 nM
same,Kd,[8]; [23],111 nM
WEPSKGWKNW,Kd,[14]; [24],150 nM
YVKFIYFIK,Kd,[1]; [21],60 nM
YVVIGLLFM,Kd,[9]; [22],12500 nM
